The results in this text go back to patent US20090060916A1 (published 2009).

Changes are numbered by the printed parent chain. “And” between values parts separate entries of the source, which are not always exact repeats. Equal values may be shown once.

As usually defined, the IC50 is the concentration that inhibits the measured activity by half. A low value points to greater potency in that assay. Usually EC50 stands for the concentration giving half of the maximal effect. A higher EC50 goes with a less potent agent.

T1: human IL-4 (human, UniProt P05112 25-153, biotinylated in the receptor binding assay and on the Biacore chip)
T1 construct: also called interleukin-4; biotinylated IL-4
T1 sequence (looked up): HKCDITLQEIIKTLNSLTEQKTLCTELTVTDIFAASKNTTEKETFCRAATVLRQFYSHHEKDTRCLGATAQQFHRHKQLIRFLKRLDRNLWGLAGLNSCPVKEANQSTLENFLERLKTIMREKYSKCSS

B1: DOM10-276-ASTKGPS-DOM9-155-78 (bispecific antibody)
chain: EVQLLESGGGLVQPGGSLRLSCAASGFTFRDYEMDWVRQAPGKGLEWVSSIGPSGSETYYADSVKGRFTISRDNSKNTLYLQMNSLRAEDTAVYYCAKAYTSFDYWGQGTLVTVSSASTKGPSDIQMTQSPSSLSASVGDRVTITCRASRHIGDWLHWYQQKPGKAPKLLIAWASTLDSGVPSRFSGSGSGTDFTLTISSLQPEDFATYYCLQEGWGPPTFGQGTKVEIKR
notes: in-line fusion, from pDOM5
B2: DOM9-112-210-ASTKGPS-DOM10-208 (bispecific antibody)
chain: EVQLLESGGGLVQPGGSLRLSCAASGFTFRNFGMGWVRQAPGKGLEWVSWIISSGTETYYADSVKGRFTISRDNSKNTLYLQMNSLRAEDTAVYYCAKSLGRFDYWGQGTLVTVSSASTKGPSDIQMTQSPSSLSASVGDRVTITCRASSPITDGLAWYQQKPGKAPKLLIDTGSRLQSGVPSRFSGSGSGTDFTLTISSLQPEDFATYYCRQGAMGSYTFGQGTKVEIKR
notes: in-line fusion, from pDOM5
B3: DOM10-224-TVAAPS-DOM9-155-78 (bispecific antibody)
chain: DIQMTQSPSSLSASVGDRVTITCRASPNIAVDLAWYQQKPGKAPKLLIRGVSRLQSGVPSRFSGSGSGTDFTLTISSLQPEDFATYYCRQGAMGSYTFGQGTKVEIKRTVAAPSDIQMTQSPSSLSASVGDRVTITCRASRHIGDWLHWYQQKPGKAPKLLIAWASTLDSGVPSRFSGSGSGTDFTLTISSLQPEDFATYYCLQEGWGPPTFGQGTKVEIKR
notes: in-line fusion, from pDOM5
B4: DOM9-112-210-ASTKGPS-DOM10-215 (bispecific antibody)
chain: EVQLLESGGGLVQPGGSLRLSCAASGFTFRNFGMGWVRQAPGKGLEWVSWIISSGTETYYADSVKGRFTISRDNSKNTLYLQMNSLRAEDTAVYYCAKSLGRFDYWGQGTLVTVSSASTKGPSDIQMTQSPSSLSASVGDRVTITCRASQNIFADLNWYQQKPGKAPKLLIYMGSRLQSGVPSRFSGSGSGTDFTLTISSLQPEDFATYYCQQDYKFPLTFGQGTKVEIKR
notes: in-line fusion, from pDOM5
B5: DOM9-112-210-ASTKGPS-DOM10-236 (bispecific antibody)
chain: EVQLLESGGGLVQPGGSLRLSCAASGFTFRNFGMGWVRQAPGKGLEWVSWIISSGTETYYADSVKGRFTISRDNSKNTLYLQMNSLRAEDTAVYYCAKSLGRFDYWGQGTLVTVSSASTKGPSEVQLLESGGGLVQPGGSLRLSCAASGFTFPKYDMMWVRQAPGKGLEWVSSIDHLGVNTYYADSVKGRFTISRDNSKNTLYLQMNSLRAEDTAVYYCAKESDWPSFDYWGQGTLVTVSS
notes: in-line fusion, from pDOM5
B6: DOM9-112-210-ASTKGPS-DOM10-275 (bispecific antibody)
chain: EVQLLESGGGLVQPGGSLRLSCAASGFTFRNFGMGWVRQAPGKGLEWVSWIISSGTETYYADSVKGRFTISRDNSKNTLYLQMNSLRAEDTAVYYCAKSLGRFDYWGQGTLVTVSSASTKGPSEVQLLESGGGLVQPGGSLRLSCAASGFTFDREEMDWVRQAPGKGLEWVSTISPSGRKTYYADSVKGRFTISRDNSKNTLYLQMNSLRAEDTAVYYCAKHGTGFDYWGQGTLVTVSS
notes: in-line fusion, from pDOM5
B7: DOM9-112-210-ASTKGPS-DOM10-276 (bispecific antibody)
chain: B6 chain with D153R, R154D, E155Y, T173S, S175G, R179S, K180E, H222A, G223Y, G225S
notes: in-line fusion, from pDOM5
B8: DOM10-212-TVAAPS-DOM9-155-78 (bispecific antibody)
chain: DIQMTQSPSSLSASVGDRVTITCRASSVILNELHWYQQKPGKAPKLLISAVSRLQSGVPSRFSGSGSGTDFTLTISSLQPEDFATYYCLQTFWGPFTFGQGTKVEIKRTVAAPSDIQMTQSPSSLSASVGDRVTITCRASRHIGDWLHWYQQKPGKAPKLLIAWASTLDSGVPSRFSGSGSGTDFTLTISSLQPEDFATYYCLQEGWGPPTFGQGTKVEIKR
notes: in-line fusion, from pDOM5
B9: DOM9-112 (other)
VH: EVQLLESGGGLVQPGGSLRLSCAASGFTFRNYGMAWVRQAPGKGLEWVSWIDASGTETYYADSVKGRFTISRDNSKNTLYLQMNSLRAEDTAVYYCAKSLGRFDYWGQGTLVTVSS
notes: VH dAb
B10: DOM10-236-ASTKGPS-DOM9-155-78 (bispecific antibody)
chain: EVQLLESGGGLVQPGGSLRLSCAASGFTFPKYDMMWVRQAPGKGLEWVSSIDHLGVNTYYADSVKGRFTISRDNSKNTLYLQMNSLRAEDTAVYYCAKESDWPSFDYWGQGTLVTVSSASTKGPSDIQMTQSPSSLSASVGDRVTITCRASRHIGDWLHWYQQKPGKAPKLLIAWASTLDSGVPSRFSGSGSGTDFTLTISSLQPEDFATYYCLQEGWGPPTFGQGTKVEIKR
notes: in-line fusion, from pDOM5
B11: DOM10-53-434 (other)
VH: GVQLLESGGGLVQPGGSLRLSCAASGFIFAWYDMGWVRQAPGKGLEWVSSIDWKGGKTYYADSVKGRFTISRDNSKNTLYLQMNSLRAEDTAVYYCATAEDEPGYDYWGQGTLVTVSS
notes: VH dAb
B12: DOM10-53-531 (other)
VH: B11 VH with I28T
notes: VH dAb
B13: DOM10-53-472 (other)
VH: B11 VH with G35K, K54H, G56K, K57I
notes: VH dAb
B14: DOM10-53-475 (other)
VH: B11 VH with I28T, K54H, G56K, K57I
notes: VH dAb
B15: DOM9-155 (other)
VL: DIQMTQSPSSLSASVGDRVTITCRASLDIGDWLHWYQQKPGKAPKLLIGWGSGLQSGVPSRFSGSGSGTDFTLTISSLQPEDFATYYCLQEGLGPPTFGQGTKVEIKR
notes: Vk dAb
B16: DOM9-44 (other)
VL: DIQMTQSPSSLSASVGDRVTITCRASQNINFWLRWYQQKPGKAPTLLIYDASALQSGVPSRFSGSGSGTDFTLTISSLQPEDFATYYCQQDFNPPYTFGQGTKVEIKR
notes: Vk dAb
B17: DOM9-112-168 (other)
VH: B9 VH with D52E, A53G, S54G
notes: VH dAb
B18: DOM10-236 (other)
VH: EVQLLESGGGLVQPGGSLRLSCAASGFTFPKYDMMWVRQAPGKGLEWVSSIDHLGVNTYYADSVKGRFTISRDNSKNTLYLQMNSLRAEDTAVYYCAKESDWPSFDYWGQGTLVTVSS
notes: VH dAb
B19: DOM10-212 (other)
VL: DIQMTQSPSSLSASVGDRVTITCRASSVILNELHWYQQKPGKAPKLLISAVSRLQSGVPSRFSGSGSGTDFTLTISSLQPEDFATYYCLQTFWGPFTFGQGTKVEIKR
notes: Vk dAb
B20: DOM10-270 (other)
VL: B19 VL with F96Y
notes: Vk dAb
B21: DOM10-215 (other)
VL: DIQMTQSPSSLSASVGDRVTITCRASQNIFADLNWYQQKPGKAPKLLIYMGSRLQSGVPSRFSGSGSGTDFTLTISSLQPEDFATYYCQQDYKFPLTFGQGTKVEIKR
notes: Vk dAb
B22: DOM10-213 (other)
VL: DIQMTQSPSSLSASVGDRVTITCRASQAIPWGLNWYQQKPGKAPKLLIYDVSSLQSGVPSRFSGSGSGTDFTLTISSLQPEDFATYYCQQDIHIPMTFGQGTKVEIKR
notes: Vk dAb
B23: DOM10-277 (other)
VH: EVQLLESGGGLVQPGGSLRLSCAASGFTFSSYEMDWVRQAPGKGLEWVSTISADGVTTYYADSVKGRFTISRDNSKNTLYLQMNSLRAEDTAVYYCAKAFDAFDYWGQGTLVTVSS
notes: VH dAb
B24: DOM10-208 (other)
VL: DIQMTQSPSSLSASVGDRVTITCRASSPITDGLAWYQQKPGKAPKLLIDTGSRLQSGVPSRFSGSGSGTDFTLTISSLQPEDFATYYCRQGAMGSYTFGQGTKVEIKR
notes: Vk dAb
B25: DOM10-224 (other)
VL: B24 VL with S27P, P28N, T30A, D31V, G32D, D49R, T50G, G51V
notes: Vk dAb

T2 sequence (P35225 35-146 limits assumed): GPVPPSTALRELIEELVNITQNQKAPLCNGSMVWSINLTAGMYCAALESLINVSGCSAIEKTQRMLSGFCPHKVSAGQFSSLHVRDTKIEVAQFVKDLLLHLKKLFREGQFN

One assay concerns the target T2, human IL-13 (human, UniProt P35225 35-146, biotinylated on the Biacore chip).
T2 construct: also called hIL-13; recombinant human IL-13
Put plainly: IL-13 Biacore.
B1: the binding result is given as “binds”.

In the case of B2, the binding result is “binds”.

On to B3, for which the binding result is listed as “binds”.

Turning to B4, the binding result is listed as “binds”.

On to B5, for which the binding result was “binds”.

Take B6: the binding result is on record as “binds”.

Regarding B7, the binding result is reported as “binds”.

Consider B8, for which the binding result is recorded as “binds”.

The next assay concerns the target T1, human IL-4. Nature of the assay: DOM9 RBA (IL-4 RBA). From the text:
(§1) The wells were washed three times with 0.1% (v/v) Tween 20 in PBS, followed by three washes with PBS, before blocking with 2% (w/v) BSA in PBS. […] The reaction was stopped by the addition of HCl and the absorbance read at 450 nm.
B1 gave a concentration for half-maximal inhibition (IC50) of 5.02 nM.

In turn, B2 had an IC50 of 2.48 nM.

The molecule B3 gave an IC50 of 12.5 nM.

On to B4, for which the IC50 was 14.2 nM.

On to B9, for which the IC50 is 3.6 nM.

The molecule B6 returned an IC50 of 10.9 nM.

Molecule B7 returned an IC50 of 10.2 nM. The IC50 values of the last two molecules are within 1.5-fold of each other.

The molecule B10 showed an IC50 of 2.54 nM. Compared with the last molecule, the IC50 is about 4-fold lower.

For the next assay, the target named is T2, human IL-13. Put plainly: assay not named ('Potency IC50').
As for B11, the IC50 was found to be 0.29 nM. That is a sub-nanomolar value.

B12: the IC50 is 0.34 nM.

Molecule B13 registered an IC50 of 0.054 nM. This IC50 lies about 6.3-fold lower than the previous one.

Take B14: it took 0.046 nM to reach half-maximal inhibition (IC50). This IC50 and that of the molecule before are within 1.5-fold of each other.

In the next assay the target is T2, human IL-13. Put plainly: Dom10 RBA (IL-13 sandwich ELISA per paragraph 471). As for the experimental part: A MAXISORP™ plate (high protein binding ELISA plate, Nunc, Denmark) was coated overnight with 2.5 μg/ml coating antibody (Module Set, Bender MedSystems, Vienna, Austria), then washed once with 0.05% (v/v) Tween 20 in PBS before blocking with 0.5% (w/v) BSA 0.05% (v/v) Tween 20 in PBS. […] The plate was then incubated with TMB substrate (KPL, Gaithersburg, USA), and the reaction was stopped by the addition of HCl and the absorbance read at 450 nm.
Take B10: a half-maximal effect (EC50) was put at 372 nM.

The target of a further assay is T1, human IL-4. Nature of the assay: IL-4 RBA: ELISA, IL-4R/Fc coated, biotinylated IL-4.
From the text: as §1
For orientation: An ELISA detects its analyte on a solid surface through an enzyme-linked reagent.
Molecule B15 returned a 50% inhibitory concentration (IC50) of 100 nM. This lies in the sub-micromolar range.

Molecule B16 registered an IC50 of 122 nM.

B9 showed an IC50 of 3 nM.

For B17, the IC50 was 1.22 nM and 0.64 nM.

The target of a further assay is T2, human IL-13. Nature of the assay: Biacore SPR, IL-13 surface, before and after DOM10-53-386. As for the experimental part:
Analytes were passed over the antigen-coated flow-cell, with in-line referencing against a blank flow-cell, at a flow rate of 30 μl/min in HBS-EP running buffer (Biacore).
A general note: SPR reads the build-up and loss of mass on a sensor chip optically.
Take B18: the binding result was “binds”.

Regarding B19, the binding result is recorded as “binds”.

Take B20: the binding result was “binds”.

With B21, the binding result is on record as “binds”.

On to B22, for which the binding result was “binds”.

For the molecule B23, the binding result is “binds”.

B24: the binding result is given as “binds”.

B25: the binding result is listed as “binds”.
